Measurements taken from paper PMC9757750 (Science Advances, 2022).

Tests used:
[1] = target: Flag-LegA15 used in the GST pulldown of Fig. 2E (Legionella pneumophila Philadelphia, UniProt Q5ZSR1); assay: pull-down; settings: both partners purified
[2] = target: 6×His-LegA15, full-length (Legionella pneumophila Philadelphia, UniProt Q5ZSR1 1-471); assay: pull-down; settings: both partners purified

B1: GST-p115 (1 to 651), ND (domain or fragment, human, UniProt O60763 1-651, looked up)
chain: MNFLRGVMGGQSAGPQHTEAETIQKLCDRVASSTLLDDRRNAVRALKSLSKKYRLEVGIQAMEHLIHVLQTDRSDSEIIGYALDTLYNIISNEEEEEVEENSTRQSEDLGSQFTEIFIKQQENVTLLLSLLEEFDFHVRWPGVKLLTSLLKQLGPQVQQIILVSPMGVSRLMDLLADSREVIRNDGVLLLQALTRSNGAIQKIVAFENAFERLLDIISEEGNSDGGIVVEDCLILLQNLLKNNNSNQNFFKEGSYIQRMKPWFEVGDENSGWSAQKVTNLHLMLQLVRVLVSPTNPPGATSSCQKAMFQCGLLQQLCTILMATGVPADILTETINTVSEVIRGCQVNQDYFASVNAPSNPPRPAIVVLLMSMVNERQPFVLRCAVLYCFQCFLYKNQKGQGEIVSTLLPSTIDATGNSVSAGQLLCGGLFSTDSLSNWCAAVALAHALQENATQKEQLLRVQLATSIGNPPVSLLQQCTNILSQGSKIQTRVGLLMLLCTWLSNCPIAVTHFLHNSANVPFLTGQIAENLGEEEQLVQGLCALLLGISIYFNDNSLESYMKEKLKQLIEKRIGKENFIEKLGFISKHELYSRASQKPQPNFPSPEYMIFDHEFTKLVKELEGVITKAIYKSSEEDKKEEEVKKTLEQHDNI
notes: also called N-terminal ARM domain; globular head
Q: Does B1 bind [1]?
A: binds

Q: Does B1 bind [2]?
A: binds
